# Publication PMC5973842
# Experiments:
# eNP WT (Ebola virus) = experiment: fluorescence polarization
# eNP-2 (Ebola virus) = experiment: fluorescence polarization
# eNP-3 (Ebola virus) = experiment: fluorescence polarization
# [1] = target: FITC-labeled eVP35 NPBP (Ebola virus); experiment: fluorescence polarisation
Substance,Kd (eNP WT (Ebola virus)) [nM],Kd (eNP-2 (Ebola virus)) [nM],Kd (eNP-3 (Ebola virus)) [nM],Kd [1] [nM]
20 nt ssRNA,13,68,15,–
eNP-2 (Ebola virus nucleoprotein N-terminal construct lacking the first 24 residues) (domain or fragment),–,–,–,1.9
eNP-3 (Ebola virus nucleoprotein N-terminal construct that includes the first 24 residues) (domain or fragment),–,–,–,12.8
"Ebola virus nucleoprotein, full-length wildtype construct (from UniProt P18272 1-739) (natural protein)",–,–,–,10.6
